Reference: PMC8824505, “Complexes of Ghrelin GHS-R1a, GHS-R1b, and Dopamine D1 Receptors Localized in the Ventral Tegmental Area as Main Mediators of the Dopaminergic Effects of Ghrelin” (The Journal of Neuroscience, 2022)

Target: dopamine D1 receptor (D1R) (UniProt P21728 1-446)
Assay: cell-based or functional assay

Sequence of dopamine D1 receptor (D1R) (P21728 whole entry): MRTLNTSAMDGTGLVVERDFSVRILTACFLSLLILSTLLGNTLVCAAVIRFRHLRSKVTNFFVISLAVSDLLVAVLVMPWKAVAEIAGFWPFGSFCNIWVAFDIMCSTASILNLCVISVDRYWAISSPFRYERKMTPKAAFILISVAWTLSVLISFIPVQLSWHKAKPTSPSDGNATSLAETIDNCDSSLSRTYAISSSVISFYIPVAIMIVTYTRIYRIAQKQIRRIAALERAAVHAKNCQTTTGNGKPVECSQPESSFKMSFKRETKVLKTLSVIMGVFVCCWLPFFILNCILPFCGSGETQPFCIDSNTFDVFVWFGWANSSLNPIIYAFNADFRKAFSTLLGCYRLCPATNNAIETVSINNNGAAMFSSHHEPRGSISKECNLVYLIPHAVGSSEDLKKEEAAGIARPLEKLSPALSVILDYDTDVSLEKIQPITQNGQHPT

- ghrelin-induced cAMP accumulation in HEK293T cells with GHS-R1a, D1R and increasing GHS-R1b cDNA; increase versus control at GHS-R1b/GHS-R1a cDNA ratios of 0, 0.3, 1 and 2 (26%, 72%, 46% and 15%): 72 % increase versus control
B1: GHS-R1a fused to GFP2 (GHS-R1a-GFP2) (receptor, human, UniProt Q92847-1 1-366, looked up)
chain: MWNATPSEEPGFNLTLADLDWDASPGNDSLGDELLQLFPAPLLAGVTATCVALFVVGIAGNLLTMLVVSRFRELRTTTNLYLSSMAFSDLLIFLCMPLDLVRLWQYRPWNFGDLLCKLFQFVSESCTYATVLTITALSVERYFAICFPLRAKVVVTKGRVKLVIFVIWAVAFCSAGPIFVLVGVEHENGTDPWDTNECRPTEFAVRSGLLTVMVWVSSIFFFLPVFCLTVLYSLIGRKLWRRRRGDAVVGASLRDQNHKQTVKMLAVVVFAFILCWLPFHVGRYLFSKSFEPGSLEIAQISQYCNLVSFVLFYLSAAINPILYNIMSKKYRVAVFRLLGFEPFSQRKLSTLKDESSRAWTESSINT
